Assay results from article PMC5758897 (Nucleic Acids Research, 2017).
Each block holds one molecule with its values, some of them ahead of it. Where no end group is shown, it is not given here.

Columns and labels:
[1] = target: T1, YEATS domain of Yaf9 (WT, aa 8–171) (Saccharomyces cerevisiae, UniProt P53930); assay: 1H,15N HSQC NMR titration, Yaf9 YEATS WT; type: binding; conditions: free acetyllysine (NMR) vs H3K27ac peptide
T1 sequence (P53930 8-171): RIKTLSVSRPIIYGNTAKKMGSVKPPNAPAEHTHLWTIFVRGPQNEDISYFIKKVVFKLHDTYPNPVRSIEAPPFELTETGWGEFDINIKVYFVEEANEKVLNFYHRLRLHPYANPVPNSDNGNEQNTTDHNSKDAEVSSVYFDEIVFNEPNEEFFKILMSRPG

[2] = target: YEATS domain of Yaf9 (aa 8–171), wild type (S. cerevisiae) (UniProt P53930); assay: other fluorescence titration
[3] = target: T2, AF9 YEATS domain (aa 1–138), wild type (human, UniProt P42568 1-138); assay: other fluorescence titration
T2 sequence (looked up): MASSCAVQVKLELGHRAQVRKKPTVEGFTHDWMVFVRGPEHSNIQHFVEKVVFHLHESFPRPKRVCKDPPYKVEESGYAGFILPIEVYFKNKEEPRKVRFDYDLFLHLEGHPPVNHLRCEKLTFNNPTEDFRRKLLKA

[4] = target: T3, E91G mutant of Yaf9-YEATS (aa 8–171) (S. cerevisiae, UniProt P53930 8-171, E91G); assay: other fluorescence titration
T3 sequence (looked up): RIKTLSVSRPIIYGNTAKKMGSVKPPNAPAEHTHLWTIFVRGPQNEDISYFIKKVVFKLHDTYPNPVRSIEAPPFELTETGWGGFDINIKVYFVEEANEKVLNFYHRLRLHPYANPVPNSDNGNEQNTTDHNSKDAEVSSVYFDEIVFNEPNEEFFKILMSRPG

[5] = target: T4, G83E mutant of Taf14-YEATS (aa 1–137) (yeast, UniProt P35189 1-137, G83E); assay: other fluorescence titration
T4 sequence (looked up): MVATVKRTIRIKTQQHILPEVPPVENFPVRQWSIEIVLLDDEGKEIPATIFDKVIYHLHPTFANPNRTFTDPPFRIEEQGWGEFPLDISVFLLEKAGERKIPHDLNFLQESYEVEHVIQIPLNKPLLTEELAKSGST

[6] = target: T5, D104R mutant of Taf14-YEATS (aa 1–137) (yeast, UniProt P35189 1-137, D104R); assay: other fluorescence titration
T5 sequence (looked up): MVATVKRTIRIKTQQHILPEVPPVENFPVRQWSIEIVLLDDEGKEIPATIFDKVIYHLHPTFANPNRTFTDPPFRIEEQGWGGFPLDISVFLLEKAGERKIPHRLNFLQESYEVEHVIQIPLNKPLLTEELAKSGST

[7] = target: T6, YEATS domain of Taf14 (aa 1–137), wild type (yeast, UniProt P35189 1-137); assay: other fluorescence titration
T6 sequence (looked up): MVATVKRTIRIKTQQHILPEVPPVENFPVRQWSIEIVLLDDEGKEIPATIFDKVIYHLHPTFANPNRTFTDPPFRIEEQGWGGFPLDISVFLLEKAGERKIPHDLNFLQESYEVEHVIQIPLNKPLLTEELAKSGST

Molecule: CC(=O)NCCCC[C@H](N)C(=O)O [Kac, acetyllysine]
binding of free acetyllysine weaker [1]: over 200 fold

Kd [2]: 10 µM
Molecule: histone H3K27ac peptide (aa 21–31 of H3) (from UniProt P68431 22-32)

binding result [3]: binds | fold increase in binding against WT Yaf9-YEATS [4]: ~1.5 fold | fold decrease in binding against WT Taf14-YEATS [5]: ~2 fold | binding result [6]: binds | binding result [7]: binds
Molecule: QTARK(Ac)STGG (peptide, UniProt P68431 6-14, looked up, also: biotinylated, site not given here) [histone H3K9ac peptide (aa 5–13 of H3)]
